# Measurements taken from ChEMBL document CHEMBL4321793, “Can Cysteine Protease Cross-Class Inhibitors Achieve Selectivity?” (J Med Chem, 2019).
# Legend:
# [1] = system: N=C(N)NCCC[C@H](NC(=O)OCc1ccccc1)C(=O)N[C@@H](CCCNC(=N)N)C(=O)Nc1ccc2ccc(=O)oc2c1; test: (§1) Inhibition of human cathepsin B assessed as ratio of Kcat/Km using Z-Phe-Arg-MCA as substrate by spectrofluorometric method
# [2] = system: N=C(N)NCCC[C@H](NC(=O)[C@H](Cc1ccc(NC(=N)N)cc1)NC(=O)OCc1ccccc1)C(=O)Nc1ccc2ccc(=O)oc2c1; test: as §1
# [3] = system: N=C(N)NCCC[C@H](NC(=O)[C@H](Cc1ccccc1)NC(=O)OCc1ccccc1)C(=O)Nc1ccc2ccc(=O)oc2c1; test: as §1
# [4] = system: N=C(N)NCCC[C@H](NC(=O)[C@H](Cc1ccncc1)NC(=O)OCc1ccccc1)C(=O)Nc1ccc2ccc(=O)oc2c1; test: as §1
substance,measurement,setting,value
Cathepsin B (Homo sapiens),kcat/Km,[1],554000 M⁻¹ s⁻¹
same,kcat/Km,[2],1.57e+06 M⁻¹ s⁻¹
same,kcat/Km,[3],2.32e+06 M⁻¹ s⁻¹
same,kcat/Km,[4],742000 M⁻¹ s⁻¹
